Data taken from the RNAGym collection of RNA variant scans (doi:10.1073/pnas.2313332121).

B1: TPR t1 (parent)
chain: GACCAAUCUGCCCUCAGAGCUCGAGAACAUCUUCGGAUGCAGAGGAGGCAGGCUUCGGUGGCGCGAUAGCGCCAACGUCCUCAACCUCCAAUGCAUCCCACCACAUGAUGAUGCCUGAAGAGCCUUGGUUUUUUG

Variants of: B1
Test: polymerase ribozyme fitness, log enrichment relative to wild type (log ratio); higher = more active; in vitro selection for triplet polymerase activity
How it was run: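 Libraries of mutants in each subunit of a heterodimeric triplet polymerase ribozyme were generated by PCR and transcribed. In triplicate, each went through one in vitro selection round: annealing with biotinylated primer, partner subunit and triplets; frozen incubation at −7 °C; gel excision of extended constructs; streptavidin-bead capture; RT-PCR. Fitness, taken from Illumina sequencing of input and output libraries, is the logarithm of a genotype's enrichment over wild-type enrichment, averaged across replicates with inverse-variance weights. The logarithm is base 2, and genotypes needed ≥10 input reads and ≥1 read per output to be kept.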

Compared with GACCAAUCAGCCCUCAGAGCACGAGAACAUCUUCGGAUGCAGAGCAGGCAGGCUUCGGUGGCGCGAUAGAGCCAACGUCCUUAACCUCCAAUGCAUCCCACCACAUGAUGAUGCCGGAAGAGCCUUGGUUUCUUC [U9A U21A G45C C70A C82U U116G U132C G135C], GACCAAUCCGCCCUCAGAGCUCGAGAACAUCUUCGGUUGCAGAGGAGGCAGGCUUCGGUGGCGCGAUAGCGCCAACGUCCUCAACCUCCAAUGCAUCCCACCACAUGAUGAUGCCUGAAGAGCCUUGGUUUUUUG [U9C A37U] is higher in “polymerase ribozyme fitness (log ratio)” value: -1.83 for the first, 0.172 for the second.

First: GACCAAUCCGCCCUCAGAGCUCGAGAACAUCUUCGGAUGCAGAGGAGGCAGGCUUCGGUGGCGCGAUAGCGCCAACGUCCUCAACCUCCAAUGCAUCCCACCACAUGAUGAUGCCUGAUGAGUCUUGGUUUUUUG [U9C A119U C123U]
Second: GACCAAUCCGCCCUCAGAGCUCGAGAACAUCUUCGGAUGCAGAGGAGGCUGCCUUCGGUGGCGCGAUAGCGCCAACGUCCUCAACCUCCAAUGCAUCCCACCACAUGAUGAUGCCUGAAGAGCCUUGGUUUUUUG [U9C A50U G52C]
The “polymerase ribozyme fitness (log ratio)” value of the first is higher: 2.07 for the first, -2.28 for the second.

Compared with GACCAAUCCGACCUCAGCGCUCGAGAACAUCUUCGGAUGCAGAGGAGGCAGGGUUCGGUGGCGCGAUAGCGCCAACGUCGUCAACCUCCAAUGCAUCCAACCACAUGAUUAUGCCUGAAGAGCCUUGGUUUUUUG [U9C C11A A18C C53G C80G C99A G110U], GACCAAUCAGCCCUCAGAGCUCGAGAACAUCUUCGGAUGCAGAGGAGGCAGGCUUCGGUGGCGCGAUAGCGCCAACGUCCUCAACCUCCAAUGCAUCCCACCACAUGAUGAUACCUGAAGAGCCUUGGUGUUUUG [U9A G113A U130G] is higher in “polymerase ribozyme fitness (log ratio)” value: -6.83 for the first, -0.107 for the second.

Compared with GACCAAUCCGCCCUCUGAGCUCGAGAACAUCUUCGGAUGCAGAGGAGGCAGGCUUCGGUGGCGCGAUAGCGCCAACGUCCUCAACCUACAAUGCCUCCCACCACAUGAUGUUGCCUGAAGAGCCUUGGUUUUUUG [U9C A16U C88A A95C A111U], GACCAAUCCGCCCUCAGAGCUCGAGAACAUCUUCGGAUGCGGAGGAGGCAGGCUUCGGUGGCGUGAUAGCGCCAACGUCCUCAACAUCCAAUGCAUCCCACCACAUGAUGAUGCCUGAAGAGCCUUGGUUUUUUG [U9C A41G C64U C86A] is higher in “polymerase ribozyme fitness (log ratio)” value: -5.45 for the first, -0.494 for the second.

Compared with GACCAAUCCGCCCUCAGAGCUCGAGGACAUCUUCGGAUGCAGAGGAGGCAGGCUUCGGUGGCGCGAUAGCGGCAACGUUCUCAACCUCCAAUGCAUCCCACCACAUGAUGAUGCCUGAAGAGCCUUGGUUUUUUG [U9C A26G C72G C79U], GACCAAUCCGCCCUCAGAGCUCGAGAACAUCUUCGGAUGCUGAGGAGGCAGGCUUCGGUGGCGCGAUAGCGUCAACGACCUCAACCUCCAAUCCAUCCCACCACAUGAUGAUGCCUGAAGAGCCUUGGUUUUUUG [U9C A41U C72U U78A G93C] is lower in “polymerase ribozyme fitness (log ratio)” value: -0.65 for the first, -1.36 for the second.

Compared with GACCAAUCAGCCCUCAGAGCUCGAGAACACCUUCGGAUGCAGAGGAUGCAGGCUUCGGUGGCGCGAUAGCGCCAACGUCCUCAACCUCCAAUGCAUCCCACCACAUGAUGAUGCCUGAAGAGCCUUGGUUUUUUG [U9A U30C G47U], GACCAAUCAGCCCUCAGAGCUCGAGAACAUCUUCGGAUGCAGAGGAGGCAGGCUUCGGUGGCGCGAUAGCGCCAACGUCCUCAACCUCCAAUGCAUCCCACCACAUGAUGAUGCCUCAAGAGCCUUGGUUUUUUG [U9A G117C] is higher in “polymerase ribozyme fitness (log ratio)” value: -3.54 for the first, -1.79 for the second.

Going from GACCAAUCAGCCCUCAGAGCUCGAGAACAUCUUCGGAUGCAGAGGAGGCAGGCUUCGGUGGCGCGAUAGCGCCAACGUCCUCAACCUCCAAUGCAUCCCACCACAUGAUGAUGCCUAAAGAGCCUUGGUUUUUUG [U9A G117A] to GACCAAUCCGCCCUCAGAGCUCGAGAACAUCUUCGGUUGCAGAGGAGGCAGGCUUCGGUGGCGCGAUAGCGCCAACGUCCUCAACCUCCAAUGCAUCCCACCACAUGAUUAUGCCUGAAGAGCCUUGGUUUUUUG [U9C A37U G110U], the “polymerase ribozyme fitness (log ratio)” value falls from 1.04 to -0.951.

Compared with GACCAAUCCGCCCUCAGAGCUCGAGAACAUCUUCGGAUGCAGAGGAGGCAGGCUUCGGUGGCGCGAUAGCGCCAACGUCCUCAACCUCCAAUGCAUCCCACCACUUGAUGAUGCCUGAAGAGCCUAGGUUUAUUG [U9C A105U U126A U132A], GACCAAUCCGCCCUCAGAGCUCGAGAACAUCUUCGGAUGCCGAGGAGGCAGGCUUCGGUGGCGCGAUAGCGCCAACGUCCUCAACCUCCAAUGCAUCCCACCACAUGAUGAUGCCUGAAGAGCCUUGGUUUUUUG [U9C A41C] is higher in “polymerase ribozyme fitness (log ratio)” value: -2.93 for the first, -0.191 for the second.

Going from GACCAAUCAGCCCUCAGAGCUCGAGAACAUCUUCGGAUGCAGAGGAGGCAGGCUUCGGUGGCGCGAUAGCGCCAACGUCCUCAACCUCCAAUGCAUCCCACCACAAGAUGAUGCCUGAAGAGCCUUGGUUUUUUG [U9A U106A] to GACCAAUCAGCCCGCAGAGCUCGAGAACAUCUUCGGAUGCCUAGGAGGCAGGCUUCGGUUGCGCGAUAGCGCCAACGUCCUCAACCUCCAAUUCAUCCCACCACAUGAUGAUGCCUGAAGCGCCUUGGUUUUUUG [U9A U14G A41C G42U G60U G93U A121C], the “polymerase ribozyme fitness (log ratio)” value falls from 0.641 to 0.0286.

Going from GACCAAUCCGCCCUCAGAGCUCGAGAGCAUCUUCGGAUGCAGAGAAGGCAGGCUUCUGUGGCGCGAUAGCGCCAACGUCCUCAACCUCCAAUGCAUCCCACCACAUGAUGAUGCGUGAAGAGCCUUGGUUUUUUG [U9C A27G G45A G57U C115G] to GACCAAUCAGCCCACAGAGCUCGAGAACAUCUUCGGAUGCAGAGGAGGCAGGCUUCGGUGGCGCGAUAGCGCCAUCGUCCUCAACCUCCAAUGCAUCCCACCACAUGAUGAUGCCUGAAGAGCUUUCGUUUUUUG [U9A U14A A75U C124U G127C], the “polymerase ribozyme fitness (log ratio)” value rises from -3.94 to -0.619.

With GACCAAUCCGCCCUCAGAGCUCGAGUACAUCUUCGGAUGCAGAGGAGGCAGGCUUCCGUGGCGCGAUAGCGCCAACGUCCUCAUCCUCCAAUGCAUCCCACCACAUGAUGAUGCCUGAAGAGCCUUGGUUUUUUG [U9C A26U G57C A84U] the “polymerase ribozyme fitness (log ratio)” value was -3.11.
